Assay results: US20020197617, “Aptamers as reagents for high throughput screening” (GILEAD SCIENCES, INC., published 2002)

T1: Wheat germ agglutinin (WGA) (Triticum vulgare, UniProt P10968 P10968:27-197)
T1 sequence: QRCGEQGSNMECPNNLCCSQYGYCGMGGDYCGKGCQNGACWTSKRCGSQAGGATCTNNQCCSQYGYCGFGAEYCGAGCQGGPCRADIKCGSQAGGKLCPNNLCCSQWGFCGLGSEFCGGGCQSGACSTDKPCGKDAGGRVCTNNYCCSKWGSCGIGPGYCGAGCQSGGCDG


What was measured:
[1] = biological target: PDGF-BB (platelet-derived growth factor BB) (Homo sapiens, UniProt P01127 P01127:82-190); experiment: 33-mer described previously (US 5,723,594); measurement conditions not stated; conditions: tags: R&D Systems, carrier free lyophilized; chain copies: 2 (inferred, homodimer)
PDGF-BB (platelet-derived growth factor BB), sequence (P01127 82-190, one chain of several): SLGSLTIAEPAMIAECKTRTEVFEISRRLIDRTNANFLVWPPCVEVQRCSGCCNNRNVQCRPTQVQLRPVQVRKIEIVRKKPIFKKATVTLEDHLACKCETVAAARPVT

[2] = biological target: T1, Wheat germ agglutinin (WGA); experiment: filter; 10 nM aptamer and 10 nM WGA, HBSMC pH 7.4, room temperature; displaced by (GlcNAc)2, (GlcNAc)3 and (GlcNAc)4, not by GlcNAc; conditions: tags: EY Laboratories; chain copies: 2; label: 5'-32P
Procedure: Small molecule oligosaccharides were screened for their ability to compete with WGA aptamer 11.20 for binding to wheat germ agglutinin protein. The small molecule (or cold 11.20) competitors at varying concentrations were mixed with the 5′-32P end-labeled 11.20 ligand at room temperature. Then WGA was added to the mixture and allowed to equilibrate for 60 minutes at room temperature. The competition mixtures (90 μL volume) all had 32P end-labeled 11.20 at 10 nM, WGA at 10 nM and were in 25 mM Hepes, 137 mM NaCl, 2.7 mM KCl, 1 mM MgCl₂, 1 mM CaCl₂, 0.067% human serum albumin (HSA), at pH 7.4 (HBSMC). Aptamer bound to WGA was separated from free aptamer by filtration through pre-washed […] nitrocellulose membrane filters. Filters were washed with 5 mL HBSMC at room temperature. The filters were placed in tubes with scintillant and the radioactivity counted to quantitate the fraction of 32P end-labeled 11.20 bound at each competitor concentration.

Binder	Kd [1]	binding result [2]
CGGGCGCGTTCTTCGTGGTTACTTTTAGTCCCG (ssDNA) [20ta]	50 pM	
11.20 (ssRNA, 2'-NH2 pyrimidines) RNA: GGGAAAAGCGAAUCAUACACAAGAUUGGUCGUACUGGACAGAGCCGUGGUAGAGGGAUUGGGACAAAGUGUCAGCUCCGCCAGAGACCAACCGAGAA		binds
